Earlier results on one molecule are cited in publication PMC9157009, “Protein proximity networks and functional evaluation of the casein kinase 1 gamma family reveal unique roles for CK1γ3 in WNT signaling” (The Journal of Biological Chemistry, 2022).

The series has as its system β-catenin-dependent transcription. The conditions noted are these: siRNA screen, BAR firefly luciferase reporter, ref Biechele et al.

B1: MAGI1 (protein, UniProt Q96QZ7 1-1491, looked up)
Membrane-associated guanylate …: MSKVIQKKNHWTSRVHECTVKRGPQGELGVTVLGGAEHGEFPYVGAVAAVEAAGLPGGGEGPRLGEGELLLEVQGVRVSGLPRYDVLGVIDSCKEAVTFKAVRQGGRLNKDLRHFLNQRFQKGSPDHELQQTIRDNLYRHAVPCTTRSPREGEVPGVDYNFLTVKEFLDLEQSGTLLEVGTYEGNYYGTPKPPSQPVSGKVITTDALHSLQSGSKQSTPKRTKSYNDMQNAGIVHAENEEEDDVPEMNSSFTADSGEQEEHTLQETALPPVNSSIIAAPITDPSQKFPQYLPLSAEDNLGPLPENWEMAYTENGEVYFIDHNTKTTSWLDPRCLNKQQKPLEECEDDEGVHTEELDSELELPAGWEKIEDPVYGIYYVDHINRKTQYENPVLEAKRKKQLEQQQQQQQQQQQQQQQQQQQQTEEWTEDHSALVPPVIPNHPPSNPEPAREVPLQGKPFFTRNPSELKGKFIHTKLRKSSRGFGFTVVGGDEPDEFLQIKSLVLDGPAALDGKMETGDVIVSVNDTCVLGHTHAQVVKIFQSIPIGASVDLELCRGYPLPFDPDDPNTSLVTSVAILDKEPIIVNGQETYDSPASHSSKTGKVNGMKDARPSSPADVASNSSHGYPNDTVSLASSIATQPELITVHIVKGPMGFGFTIADSPGGGGQRVKQIVDSPRCRGLKEGDLIVEVNKKNVQALTHNQVVDMLVECPKGSEVTLLVQRGGLPVPKKSPKSQPLERKDSQNSSQHSVSSHRSLHTASPSHSTQVLPEFPPAEAQAPDQTDSSGQKKPDPFKIWAQSRSMYENRPMSPSPASGLSKGEREREINSTNFGECPIPDYQEQDIFLWRKETGFGFRILGGNEPGEPIYIGHIVPLGAADTDGRLRSGDELICVDGTPVIGKSHQLVVQLMQQAAKQGHVNLTVRRKVVFAVPKTENEVPSPASSHHSSNQPASLTEEKRTPQGSQNSLNTVSSGSGSTSGIGSGGGGGSGVVSTVVQPYDVEIRRGENEGFGFVIVSSVSRPEAGTTFAGNACVAMPHKIGRIIEGSPADRCGKLKVGDRILAVNGCSITNKSHSDIVNLIKEAGNTVTLRIIPGDESSNATLLTNAEKIATITTTHTPSQQGTQETRNTTKPKQESQFEFKAPQATQEQDFYTVELERGAKGFGFSLRGGREYNMDLYVLRLAEDGPAERCGKMRIGDEILEINGETTKNMKHSRAIELIKNGGRRVRLFLKRGDGSVPEYDPSSDRHGPATGPQGVPEVRAGPDRRQHPSLESSYPPDLHKSSPHGEKRAHARDPKGSREYSRQPNEHHTWNGTSRKPDSGACRPKDRAPEGRRDAQAERAAAANGPKRRSPEKRREGTRSADNTLERREKHEKRRDVSPERRRERSPTRRRDGSPSRRRRSLERLLEQRRSPERRRGGSPERRAKSTDRRRARSPERRRERSLDKRNREDRASHREREEANLKQDAGRSSRHPPEQRRRPYKECSTDLSI
With B1, the “Fold over control siRNA” value (fold over control siRNA) is 3.957. The “Average BAR firefly Luciferase (Raw)” value (raw signal per siRNA target) is 104670.
